Patent US20210292396A1

Assays:
Test in all cases: cell-based or functional assay
[1] = target: HIV Env of isolate 426c (HIV)
[2] = target: HIV Env of isolate Ce1176.A3 (HIV)
[3] = target: Envelope protein of SIVmac251.30.SG3 (clade NA)
[4] = target: Env of HIV isolate CAP256.206.C9 (clade C) (HIV)
[5] = target: Env of HIV isolate 57128.vrc15 (clade D) (HIV)
[6] = target: Env of HIV isolate ZM176.66 (clade C) (HIV)
[7] = target: Env of HIV isolate 25711-2.4 (clade C) (HIV)
[8] = target: HIV Env of isolate UG024.2 (HIV)
[9] = target: Env of HIV isolate JRCSF.JB (clade B) (HIV)
[10] = target: Env of HIV isolate 3337.v2.c6 (clade CD) (HIV)
[11] = target: Env of HIV isolate CNE55 (clade AE) (HIV)
[12] = target: Env of HIV isolate ZM249.1 (clade C) (HIV)
[13] = target: HIV Env of isolate 96ZM651.02 (HIV)
[14] = target: Env of HIV isolate A07412M1.vrc12 (clade D) (HIV)
[15] = target: HIV Env of isolate CH070.1 (HIV)
[16] = target: Env of HIV isolate 3365.v2.c20 (clade A) (HIV)
[17] = target: HIV Env of isolate 3016.v5.c45 (HIV)
[18] = target: Env of HIV isolate T257-31 (clade AG) (HIV)
[19] = target: Env of HIV isolate P0402.c2.11 (clade G) (HIV)
[20] = target: Env of HIV isolate CH181.12 (clade BC) (HIV)
[21] = target: Env of HIV isolate 3718.v3.c11 (clade A) (HIV)
[22] = target: Env of HIV isolate X2278.C2.B6 (clade B) (HIV)
[23] = target: Env of HIV isolate CNE12 (clade B) (HIV)
[24] = target: Env of HIV isolate 45_01dG5 (clade B) (HIV)
[25] = target: HIV Env of isolate ZM135.10a (HIV)
[26] = target: Env of HIV isolate T278-50 (clade AG) (HIV)
[27] = target: Env of HIV isolate THRO.18 (clade B) (HIV)
[28] = target: Env of HIV isolate SC422.8 (clade B) (HIV)
[29] = target: Env of HIV isolate CNE31 (clade C) (HIV)
[30] = target: Env of HIV isolate UG037.8 (clade A) (HIV)
[31] = target: HIV Env of isolate X1632.S2.B10 (HIV)
[32] = target: Env of HIV isolate C2101.c1 (clade AE) (HIV)
[33] = target: Env of HIV isolate DJ263.8 (clade AG) (HIV)
[34] = target: Env of HIV isolate 0077.v1.c16 (clade C) (HIV)
[35] = target: Env of HIV isolate M02138 (clade AE) (HIV)
[36] = target: Env of HIV isolate UG021.16 (clade D) (HIV)
[37] = target: HIV Env of isolate ZA012.29 (HIV)
[38] = target: Env of HIV isolate CAP244.D3 (clade C) (HIV)
[39] = target: Env of HIV isolate ZM197.7 (clade C) (HIV)
[40] = target: Env of HIV isolate 6631.v3.c10 (clade C) (HIV)
[41] = target: Env of HIV isolate CNE5 (clade AE) (HIV)
[42] = target: HIV Env of isolate SO18.18 (HIV)
[43] = target: Env of HIV isolate 191821.E6.1 (clade D) (HIV)
[44] = target: Env of HIV isolate 398-F1.F6.20 (clade A) (HIV)
[45] = target: HIV Env of isolate CNE58 (HIV)
[46] = target: Env of HIV isolate Q769.h5 (clade A) (HIV)
[47] = target: Env of HIV isolate DU151.02 (clade C) (HIV)
[48] = target: Env of HIV isolate SF162.LS (clade B) (HIV)
[49] = target: Env of HIV isolate 235-47 (clade AG) (HIV)
[50] = target: Env of HIV isolate QH209.14M.A2 (clade A) (HIV)

B1: ePGT121.15 (ePGT121.15.H6 VH and ePGT121.15.L1 VL) (antibody, V domains shown)
VH: QMQLQESGPGLVKPGETLSLTCSVSGASISSSYWSWLRETPGKGLEWIGYTHHSGDTNYAPSLKSRVHLGLHPSKNQVSLSLTSVTAADTAVYYCARTLHGRRIYGVVAFNEFFTYFYWEVWGKGTQVTVSS
VL: SDISVAPGETVRISCGGESIGSRAVQWYQHRAGQAPKLIIYNNQDRPPGIPERFSGSPDIDFGTTATLTITNVEAGDEATYYCHIWDSRRPTNWVFGGGTTLTVL
[1]
  IC80, pseudovirus neutralization: 1.38 µg/mL
[2]
  IC80, pseudovirus neutralization: 0.01 µg/mL
[3]
  IC50, pseudovirus neutralization: > 50 µg/mL
[4]
  IC50, pseudovirus neutralization: 0.003 µg/mL
[5]
  IC50, pseudovirus neutralization: 0.007 µg/mL
[6]
  IC50, pseudovirus neutralization: 0.073 µg/mL
[7]
  IC50, pseudovirus neutralization: 0.004 µg/mL
[8]
  IC80, pseudovirus neutralization: 4.72 µg/mL
[9]
  IC50, pseudovirus neutralization: 0.008 µg/mL
[10]
  IC50, pseudovirus neutralization: 0.589 µg/mL
[11]
  IC50, pseudovirus neutralization: > 50 µg/mL
[12]
  IC50, pseudovirus neutralization: 0.249 µg/mL
[13]
  IC80, pseudovirus neutralization: 0.004 µg/mL
[14]
  IC50, pseudovirus neutralization: 0.005 µg/mL
[15]
  IC80, pseudovirus neutralization: 0.004 µg/mL
[16]
  IC50, pseudovirus neutralization: 0.006 µg/mL
[17]
  IC80, pseudovirus neutralization: > 50 µg/mL
[18]
  IC50, pseudovirus neutralization: > 50 µg/mL
[19]
  IC50, pseudovirus neutralization: 0.004 µg/mL
[20]
  IC50, pseudovirus neutralization: 0.003 µg/mL
[21]
  IC50, pseudovirus neutralization: 0.489 µg/mL
[22]
  IC50, pseudovirus neutralization: 0.002 µg/mL
[23]
  IC50, pseudovirus neutralization: 0.003 µg/mL
[24]
  IC50, pseudovirus neutralization: 0.003 µg/mL
[25]
  IC80, pseudovirus neutralization: 0.508 µg/mL
[26]
  IC50, pseudovirus neutralization: 4.87 µg/mL
[27]
  IC50, pseudovirus neutralization: > 50 µg/mL
[28]
  IC50, pseudovirus neutralization: 0.011 µg/mL
[29]
  IC50, pseudovirus neutralization: 0.042 µg/mL
[30]
  IC50, pseudovirus neutralization: 0.004 µg/mL
[31]
  IC80, pseudovirus neutralization: > 50 µg/mL
[32]
  IC50, pseudovirus neutralization: > 50 µg/mL
[33]
  IC50, pseudovirus neutralization: 0.013 µg/mL
[34]
  IC50, pseudovirus neutralization: > 50 µg/mL
[35]
  IC50, pseudovirus neutralization: > 50 µg/mL
[36]
  IC50, pseudovirus neutralization: 0.006 µg/mL
[37]
  IC80, pseudovirus neutralization: 0.012 µg/mL
[38]
  IC50, pseudovirus neutralization: > 50 µg/mL
[39]
  IC50, pseudovirus neutralization: > 50 µg/mL
[40]
  IC50, pseudovirus neutralization: 0.015 µg/mL
[41]
  IC50, pseudovirus neutralization: > 50 µg/mL
[42]
  IC80, pseudovirus neutralization: 0.009 µg/mL
[43]
  IC50, pseudovirus neutralization: 0.249 µg/mL
[44]
  IC50, pseudovirus neutralization: 0.004 µg/mL
[45]
  IC80, pseudovirus neutralization: 0.075 µg/mL
[46]
  IC50, pseudovirus neutralization: > 50 µg/mL
[47]
  IC50, pseudovirus neutralization: 0.002 µg/mL
[48]
  IC50, pseudovirus neutralization: 0.003 µg/mL
[49]
  IC50, pseudovirus neutralization: 0.009 µg/mL
[50]
  IC50, pseudovirus neutralization: > 50 µg/mL
